Measurements as given in the supplement of paper PMC12764529.
± gives the half width of the 95% confidence interval.

Columns and labels:
[1] = folding stability dG unfold (combined trypsin and chymotrypsin); higher = more stable
Procedure, shortened: (§1)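 How resistant each design was to proteolysis was captured as K50, inferred by Bayesian fitting of sequencing counts. Unfolding free energy was then derived relative to a sequence-predicted unfolded-state K50 and a shared folded-state K50, per protease or combined. Digestion used trypsin and chymotrypsin at 11 threefold-diluted concentrations plus a no-protease condition, on mini-proteins under 80 residues without cysteine in a PA-tagged cDNA display construct. Designs were kept only when AlphaFold2 dimer inter-PAE was above 15.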

[2] = folding stability dG unfold from chymotrypsin proteolysis; higher = more stable
Procedure, shortened: as §1

[3] = folding stability dG unfold from trypsin proteolysis; higher = more stable
Procedure, shortened: as §1

Sequence	folding stability dG unfold [1] [kcal/mol]	folding stability dG unfold [2] [kcal/mol]	folding stability dG unfold [3] [kcal/mol]
SAGGSAGGSAGGMVTTLEVTVSPDGVITVTTVTTDAAGTPVTTTTTTTVLGPGGPVLAVSAGGSAGGSAGGS [r10_484_JUSTAS]	2.03 ± 0.12	2 ± 0.044	2.05 ± 0.13
SAGGSAGGSMKITVEKDENGNYRVTVTLTVNGKEIKLTVTVPKNTTPEEVKKKAEELAKELLKSAGGSAGGS [r12_69_TrROS_Hall]	> 6	5.13 ± 0.44	4.39 ± 0.55
SAGGSFEFKAEVFYDKEKDIYYVKIPYILKNTGKIIPIVKKVKAGDPIPVEKLAEKIAKELEELGISAGGSA [r2_221_TrMRF]	1.36 ± 0.1	1.89 ± 0.066	0.357 ± 0.079
SAGTIVFSRDELKELGIPEDMTVEEIKQKILDRLKEEGYEVKITKIEVVEVDEEEGRVLVRITIEVKKPSAG [r5_23_TrROS_Hall]	4.17 ± 0.13	4.28 ± 0.13	3.69 ± 0.14
SVFEMPIKLTLKRRDPDGKGRKVKVTIRIRFEMPPNLPPDDKNDPERRKMHQMMHSNMHERAESLADPLASA [r9_237_TrROS]	1.67 ± 0.28	1.6 ± 0.36	1.41 ± 0.095
SAGGSASMIFADDPAQAEAYVKPLFPNGPPFDIVELSEEEGKELVEKLKKEGKPYKVIVIKDPSKPSAGGSA [r15_567_JUSTAS]	0.341 ± 0.3	0.507 ± 0.42	0.192 ± 0.19
SAMDFPPGSTATIKVEVKNPDNTKTETYEIEVPVDPETGKAITLEDLKEALEKLGVNPENVKIVDIKVGSAG [r14_93_TrMRF]	2.72 ± 0.27	2.25 ± 0.2	3.18 ± 0.22
SMQINVERNPENGTVIIHIPMEDMPPENIREILKDLPPNNKRVTIHMHDPPYMRWLKELAKEKGFPIKITSA [r9_919_TrROS]	0.623 ± 0.15	0.453 ± 0.21	0.824 ± 0.098
SKIEIEVFPEEGFIRIRLEAENLTEEELKDAIIEFIKSLGFPAEVEILRIEPSGNTIRIEALVKVEPGYLSA [r9_347_TrMRF]	2.97 ± 0.093	2.673 ± 0.022	3.27 ± 0.12
SAGGSAGGSASSMVKPEKLPNGEKVVVTTETVPDPNSDTPVTVVTTEIYKGDKIVEVKTTLVSAGGSAGGSA [r18_185_JUSTAS]	0.439 ± 0.13	0.384 ± 0.12	0.339 ± 0.038
SAGGSKKKIEKIEIEIEIKNKDGKTYKIKAEIEKVELKDGKVAKIRLEIYNENGEKIAEFEFEIKISAGGSA [r2_215_TrROS_Hall]	3.61 ± 0.23	4.03 ± 0.19	2.08 ± 0.15
SAGGMPKTIEVEIVFKRDEEGKIGIDKIKKAAEELAKKFPEVKKVEVDIEEDPETDYVKVKVKVEVESAGGS [r8_258_TrMRF]	2.1 ± 0.14	2.34 ± 0.032	1.75 ± 0.059
SEKVKKELNEAGYPVKDIKFVPEKGYAYITVEVYVPEVDKKVEKEIVIPFPDSATPEQLTEAARKALEADSA [r9_184_TrMRF]	3.09 ± 0.092	3.04 ± 0.076	3.04 ± 0.11
SAGGSAGMTPVSEAVVPGPNVTTLTTYRDPSSSALITPVTTTPPDGVPVTTTTLDLGSSTVTLSTTSAGGSA [r15_993_JUSTAS]	0.97 ± 0.082	0.583 ± 0.21	1.06 ± 0.053
SAGGSAGGSAAISIDLPPNSVLNISIPVTEPGGKPYTVKISVYSTPLPSNSYELNIKVTIVSAGGSAGGSAG [r3_347_JUSTAS]	4.43 ± 0.12	4.66 ± 0.093	3.56 ± 0.15
SAMKTEVIEFENFTIVVEELPDGSKKIIILFENPEKAKEALEKNPWIKEFIAEAEKEGYDVELAVVEPESAG [r14_873_TrMRF]	3.21 ± 0.085	3.31 ± 0.042	3.21 ± 0.12

Sequence	folding stability dG unfold [1] [kcal/mol]	folding stability dG unfold [2] [kcal/mol]	folding stability dG unfold [3] [kcal/mol]
SAGGSAGGSADIKVEVEYDKSNGYMWVKIKLPGKDIPIWIPPNDSPEQMEEKAIDFAKYLLKSAGGSAGGSA [r18_266_TrROS]	0.791 ± 0.27	0.765 ± 0.21	0.592 ± 0.12
SAGGSAGGSAGTETKVLFIDENFESVEEAFQALRDLLPDNYKIEPLGVFPAKNKVVVLVTNPSAGGSAGGSA [r18_429_TrMRF]	0.589 ± 0.15	0.189 ± 0.27	0.646 ± 0.056
SAGSPPDDVREEETEEVVPSPDGSLTVTRTPVVRRPGEEEEVRTETTVYFPPSDETLTSESLTRFPGASAGG [r19_387_JUSTAS]	0.695 ± 0.095	0.895 ± 0.051	0.356 ± 0.049
SAGGSAGGSAGSVLILVSREDLEALLEAGAEIVEVSDDYVLIRVEVPEVEVLDENGKRLDSAGGSAGGSAGG [r11_828_TrROS_Hall]	2.21 ± 0.077	2.43 ± 0.056	1.9 ± 0.042
SMEVKIELTDEEIEAALEAGYEVEIEVRVVEVEYDEETDEVTVKVEVTITIRPVPPPPEVVVDEETGEILSA [r9_396_TrROS_Hall]	1.27 ± 0.34	0.342 ± 0.057	2.1 ± 0.23
SAGGSAGGSAGSMTITITETKKLPNGKTVVTTTKVEVRVFPNGGAIERKTLEVVTEELLGSAGGSAGGSAGG [r17_129_JUSTAS]	1.58 ± 0.098	1.79 ± 0.053	1.34 ± 0.041
SAGGMKKGQKVTITIEKNEDGTLRITVKVDGKEFVFEFPKDMSLEELLKKAEEAAKKLNLPVEIEPVSAGGS [r16_446_TrROS_Hall]	2.3 ± 0.25	2.65 ± 0.15	1.29 ± 0.069
SAGGMETIELEIEITDEDGNTYRIRVTIERKDGKLVIKIEVEAETPEERERARELAEELARRLEEELSAGGS [r8_416_TrROS_Hall]	4.94 ± 0.6	5.3 ± 0.35	4.1 ± 0.19
SAGGSAGGSAGMKEGEKPKVKIEIDVLIEVDGKLYRVRAEAEINEDGEITIKVEIEELPDSAGGSAGGSAGG [r11_551_TrROS_Hall]	3.3 ± 0.12	3.65 ± 0.11	2.4 ± 0.11
SAGGETKTITIKVDGKLVTITVKKNKNGEELVTVKVYENGKLVEEVTMSKDELEELAKKLGLSVEELKSAGG [r13_108_TrROS_Hall]	3.62 ± 0.1	3.81 ± 0.051	3.27 ± 0.091
SAGWISPKQLRHALRNGKPIKIYMPNPQNKEHAKNWLRQETGLPKEEQKELLKDVKIEPMPPNDPNFKKSAG [r5_368_TrROS]	-0.0521 ± 0.45	0.497 ± 0.47	0.128 ± 0.33
SAGGSAGGSAGGSPLPGQPPEVILIKLDKPVKVGQTITLPDGYKLEVNEETGYLLIVKTSAGGSAGGSAGGS [r4_78_TrROS_Hall]	0.843 ± 0.051	0.992 ± 0.081	0.705 ± 0.05
SAGMVATLYDPNLPPVSVGITETVTVPHPEGFTVTVTLSSDGTATVTPSDGSSTTLPDASEVRVTATPASAG [r5_869_JUSTAS]	1.1 ± 0.044	0.921 ± 0.021	1.31 ± 0.035
SAGGSAGGSNEKKYIYRAKITIPGKEGEKPFEIEFESEEEVIELVEKLFPKENIKLEVEKFELDSAGGSAGG [r6_113_TrMRF]	2.33 ± 0.15	2.51 ± 0.12	1.83 ± 0.1
SALEELLKELAEKLGYPYTVLEIKKEENTYKMVIKLTKEGTPVIVDVEIEFPSSDPNVYKVKIKKIEEPSAG [r14_387_JUSTAS]	3.49 ± 0.072	3.603 ± 0.027	2.8 ± 0.087
